Test results reported in article PMC10023680, “Targeting Ras-binding domain of ELMO1 by computational nanobody design” (Communications Biology, 2023).

What was measured:
Settings in all cases: both partners purified
[1] = molecular target: ELMO1-RBD (residues 1-98) (Homo sapiens, UniProt Q92556); assay: SPR; Biacore T200; ELMO1-RBD (1-98) amine-coupled to CM5 chip; nanobody designs injected at five concentrations (0.5-8 μM); 10 mM HEPES pH 7.5, 150 mM NaCl, 0.005% P-20; single-cycle kinetic analysis
[2] = molecular target: T1, ELMO1-RBD (residues 1-98) (Homo sapiens, UniProt Q92556); assay: SPR; ELMO1-RBD (residues 1-98) immobilised on a CM5 chip by amine coupling; 10 mM HEPES pH 7.5, 150 mM NaCl, 0.005% surfactant P-20; five concentrations (0.5-8 uM) of each nanobody injected continuously; single-cycle kinetic analysis; Biacore T200
T1 construct: source: E. coli cell-free protein synthesis, purified (HisTrap, HiTrap Q, Superdex 75); not shown: histidine tag, N-terminal, cleaved

RhoG (residues 1-184) [3] = molecular target: T2, RhoG (residues 1-184) (human, UniProt P84095 1-184); assay: crystal structure; equimolar ELMO1-RBD (residues 1-82) and RhoG mixed at 16 mg/ml, 4 °C for 4 h; hanging-drop vapor diffusion at 20 °C; 1.6 Å
T2 construct: human RhoG, residues 1-184; Loaded with GTPγS for the SPR assays; also called active RhoG; source: Sf9 (baculovirus), purified (HisTrap, TEV, Superdex 75); not shown: poly-histidine tag, N-terminal, cleaved

RhoG (residues 1-184) [4] = molecular target: T2, RhoG (residues 1-184); assay: SPR; Biacore T200; GST-ELMO1-RBD (1-113, wild-type or mutants) captured on CM5 chip with GST Capture Kit; GTPγS-bound RhoG injected at 2.2-35.5 μM (Rac1 and Cdc42 measured similarly); 10 mM HEPES pH 7.5, 150 mM NaCl, 1 mM MgCl2, 0.005% P-20; steady-state affinity analysis

T2 sequence (P84095 1-184): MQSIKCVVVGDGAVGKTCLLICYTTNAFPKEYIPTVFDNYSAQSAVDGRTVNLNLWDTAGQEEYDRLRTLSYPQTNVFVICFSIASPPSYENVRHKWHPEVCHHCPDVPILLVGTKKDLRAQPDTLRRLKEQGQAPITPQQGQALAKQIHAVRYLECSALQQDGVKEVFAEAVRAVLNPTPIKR

B1: Nb29 (VHH)
VHH: VQLVESGGGLVQAGDSLRLSCAASGLLFSFYIMGWFRQAPGREREFVAAIKWAGDTIYGTDSVKGRFAISRDNAKNTMYLQMNSLKPEDTAVYYCAADRFLTRSVKYTYWGQGTQVTVSS
notes: as Nb01 (designed from PDB 5LMW chain A) with S57A, R67T, T68I (CDR2) and D137T (CDR3) relative to Nb01; keeps Leu29 and Lys59; numbers count on: AHo numbering; S57A, R67T, T68I and D137T are stated against Nb01, not against the parent 5LMW; the old residues may themselves be designed ones; source: E. coli cell-free protein synthesis (with DsbC and GSSG), purified (Ni Sepharose)
Kd [1]: 2000 nM

B2: Nb02 (VHH)
VHH: VQLVESGGGLVQAGDSLRLSCAASGLMFSFYIMGWFRQAPGREREFVASITWAGDRTYGTDSVKGRFAISRDNAKNTMYLQMNSLKPEDTAVYYCAADRFLTRSVKYDYWGQGTQVTVSS
notes: designed from the parent nanobody chain A of PDB 5LMW; as Nb01 but with T29M and S59T instead of T29L and S59K; numbers count on: AHo numbering; source: E. coli cell-free protein synthesis (with DsbC and GSSG), purified (Ni Sepharose)
binding result [1]: no binding (tested: 0.5-8 μM)

B3: Nb29 (VHH)
VHH: VQLVESGGGLVQAGDSLRLSCAASGLLFSFYIMGWFRQAPGREREFVAAIKWAGDTIYGTDSVKGRFAISRDNAKNTMYLQMNSLKPEDTAVYYCAADRFLTRSVKYTYWGQGTQVTVSS
notes: It is Nb01 with S57A, R67T, T68I (CDR2) and D137T (CDR3); S57A, R67T, T68I and D137T are stated against Nb01, not against 5LMW; Numbers count on: AHo numbering; A TEV cleavage site follows the N-terminal poly-histidine tag, but no cleavage is described for the nanobodies; source: E. coli cell-free protein synthesis, purified (Ni Sepharose resin)
Kd [2]: 2020 nM

B4: ELMO1-RBD (residues 1-82) (domain or fragment, human, UniProt Q92556 1-82, looked up)
chain: MPPPADIVKVAIEWPGAYPKLMEIDQKKPLSAIIKEVCDGWSLANHEYFALQHADSSNFYITEKNRNEIKNGTILRLTTSPA
binding result (RhoG (residues 1-184) [3]): binds

B5: GST-tagged ELMO1-RBD (residues 1-113), wild-type (domain or fragment, human, UniProt Q92556 1-113, looked up)
chain: MPPPADIVKVAIEWPGAYPKLMEIDQKKPLSAIIKEVCDGWSLANHEYFALQHADSSNFYITEKNRNEIKNGTILRLTTSPAQNAQQLHERIQSSSMDAKLEALKDLASLSRD
notes: the plasmids section describes only His-tagged ELMO1-RBD; also called ELMO1-RBD wild-type; not shown: GST, N-terminal, kept
binding result (RhoG (residues 1-184) [4]): binds

B6: GST-tagged ELMO1-RBD (residues 1-113) N58A (domain or fragment, human, UniProt Q92556 1-113, looked up)
chain: MPPPADIVKVAIEWPGAYPKLMEIDQKKPLSAIIKEVCDGWSLANHEYFALQHADSSAFYITEKNRNEIKNGTILRLTTSPAQNAQQLHERIQSSSMDAKLEALKDLASLSRD
notes: not shown: GST, N-terminal, kept
binding result (RhoG (residues 1-184) [4]): binds

B7: GST-tagged ELMO1-RBD (residues 1-113) K20E (domain or fragment, human, UniProt Q92556 1-113, looked up)
chain: MPPPADIVKVAIEWPGAYPELMEIDQKKPLSAIIKEVCDGWSLANHEYFALQHADSSNFYITEKNRNEIKNGTILRLTTSPAQNAQQLHERIQSSSMDAKLEALKDLASLSRD
notes: as for B6
binding result (RhoG (residues 1-184) [4]): binds

B8: GST-tagged ELMO1-RBD (residues 1-113) Y18A (domain or fragment, human, UniProt Q92556 1-113, looked up)
chain: MPPPADIVKVAIEWPGAAPKLMEIDQKKPLSAIIKEVCDGWSLANHEYFALQHADSSNFYITEKNRNEIKNGTILRLTTSPAQNAQQLHERIQSSSMDAKLEALKDLASLSRD
notes: as for B6
binding result (RhoG (residues 1-184) [4]): binds
